Experimental data reported in patent US20110206686A1 (published 2011).

Legend:
human IL-23 [1] = target: T1, human IL-23 (human, UniProt Q9NPF7 20-189; P29460 23-328); test: blocking ELISA (Example 9): purified antibody pre-incubated with endogenous human IL-23 (3.5 ng/ml, from stimulated dendritic cells), binding to plate-coated recombinant human IL-23 receptor detected with biotinylated anti-human IL-12; 1% BSA
T1 construct: Heterodimer of p19 and p40; also called hIL-23; recombinant human IL-23
T1 sequence 1: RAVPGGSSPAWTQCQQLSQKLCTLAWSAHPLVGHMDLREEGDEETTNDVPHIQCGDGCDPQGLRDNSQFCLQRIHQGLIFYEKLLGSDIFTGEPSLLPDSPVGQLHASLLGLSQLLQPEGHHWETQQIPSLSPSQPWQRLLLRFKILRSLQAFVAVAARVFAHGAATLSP
T1 sequence 2: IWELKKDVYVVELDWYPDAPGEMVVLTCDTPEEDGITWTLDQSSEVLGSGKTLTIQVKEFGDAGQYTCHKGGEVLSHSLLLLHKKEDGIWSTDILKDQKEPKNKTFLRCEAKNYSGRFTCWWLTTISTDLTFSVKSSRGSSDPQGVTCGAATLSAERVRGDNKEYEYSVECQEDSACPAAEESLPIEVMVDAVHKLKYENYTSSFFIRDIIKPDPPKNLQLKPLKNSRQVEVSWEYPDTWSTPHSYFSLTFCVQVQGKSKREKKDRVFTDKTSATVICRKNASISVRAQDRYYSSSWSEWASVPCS
Protocol: (§1) Recombinant human IL-23 Receptor (R&D systems 1400-IR-050) was coated onto 96 well plates at a concentration of 1 μg/ml. Endogenous human IL-23 at 3.5 ng/ml final, was pre incubated for 1 hour with a titration of purified antibody material before being added to the pre-coated plates. Detection was performed with biotinylated anti-human IL12 (R&D systems BAF-219) followed by Streptavidin-HRP (GE Healthcare RPN 4401). This neutralisation ELISA used 1% BSA.

human IL-23 [2] = target: T1, human IL-23; test: blocking ELISA, optimised protocol (Example 6): antibody pre-incubated with constant human IL-23, binding to plate-coated human IL-23R Fc chimera detected with biotinylated anti-human IL-12, OD450; purified antibody
Protocol: Optimised protocol: Plates were coated with human IL23R Fc chimera at […] (phosphate buffered saline). 50 μl/well of this mixture was incubated overnight at 4° C. The plates were then washed three times with Phosphate Buffered Saline with 0.05% Tween 20 (PBST). Plates were blocked with 4% skim milk powder (Fluka BioChemika #70166) PBST 100 μl/well for a minimum of 1 hour at room temperature. The plates were then washed three times with Phosphate Buffered Saline+0.05% Tween 20 (PBST). Various concentrations of antibody were incubated in a separate plate with a constant concentration of IL-23 for 1 hour at room temperature. 50 ul of each mixture were transferred to the assay plate and incubated at RT for 1 hr. They were then washed three times with Phosphate Buffered Saline+0.05% Tween 20 (PBST). Bound IL23 was detected by anti human IL12 Biotin labelled Ab (R&D systems BAF219) diluted to 100 ng/ml in 4% skim milk powder (Fluka BioChemika #70166) PBST. 50 μl/well of the biotinylated antibody was added and incubated at RT for 1 hour. The plates were then washed three times with Phosphate Buffered Saline+0.05% Tween 20 (PBST). SA HRP (GE healthcare RPN4401) was diluted 1/4000 in 4% skim milk powder (Fluka BioChemika #70166) PBS, 50 μl/well was added to the plates. […] The plate was read at OD450 nm using the SOftmaxPRO versamax plate reader.

human IL-23 [3] = target: T1, human IL-23; test: blocking ELISA (Example 10): purified antibody pre-incubated with endogenous human IL-23 (5 ng/ml), binding to plate-coated recombinant human IL-23 receptor detected with biotinylated anti-human IL-12; 25% human pooled AB serum
Protocol: as §1, with “5” for “3.5”, “incubated” for “incubated for 1 hour”, “mAbs” for “antibody material”, “BAF-219),” for “BAF-219)”, “25% human pooled AB type serum. 8C92H₆, HC1LC1, and A3M0 retain their activity in human serum and inhibit binding of endogenous human IL-23 binding to human IL-23 receptor.” for “1% BSA.”

B1: murine mAb 8C9 2H6 (antibody, V domains shown)
VH: QVQLQQSGAELARPGTSVKLSCKASGYTFTSYGITWVKQRTGQGLEWIGENYPRSGNTYYNEKFKGKATLTADKSSSTAYMELRSLTSEDSAVYFCARCEFISTVVAPYYYALDYWGQGTSVTVSS
VL: DIVLTQSPASLAVSLGQKATISCKASKKVTIFGSISALHWYQQKPGQPPKLIYNGAKLESGVSARFSDSGSQNRSPFGNQLSFTLTIDPVEADDAATYYCLQNKEVPYTFGGGTKLEIK
notes: Murine hybridoma antibody; also called 8C92H6 (mouse parental); murine 8C92H6 mAb
IC50 (read off the curve) (human IL-23 [1]): ~0.05 mg/L

B2: A3N2 (antibody, human IgG1, kappa, V domains shown)
VH: QVQLVQSGAEVKKPGSSVKVSCKASGYTFTSYGITWVRQAPGQGLEWMGENYPRSGNTYYNEKFKGRVTITADKSTSTAYMELSSLRSEDTAVYYCARSEFISTVVAPYYYALDYWGQGTLVTVSS
VL: DIVMTQTPLSLSVTPGQPASISCKASKKVTIFGSISALHWYLQKPGQPPQLIYNGAKLESGVSDRFSDSGSGTDFTLKISRVEAEDVGVYYCLQNKEVPYTFGGGTKVEIKR
IC50 (read off the curve) (human IL-23 [2]): ~0.9 nM

B3: A3M0 (antibody, human IgG1, kappa, V domains shown)
VH: QVQLVQSGAEVKKPGSSVKVSCKASGYTFTSYGITWVRQAPGQGLEWMGENYPRSGNTYYNEKFKGRVTITADKSTSTAYMELSSLRSEDTAVYYCARSEFISTVVAPYYYALDYWGQGTLVTVSS
VL: DIVMTQSPDSLAVSLGERATINCKASKKVTIFGSISALHWYQQKPGQPPKLIYNGAKLESGVPDRFSGSGSGTDFTLTISSLQAEDVAVYYCLQNKEVPYTFGGGTKVEIKR
notes: Humanised, human gamma1 and kappa constant regions; also called A3M0 (humanised)
IC50 (read off the curve) (human IL-23 [3]): ~0.02 mg/L
